Measured values reported in publication PMC8555152.

Biological target: microtubule associated protein 1 light chain 3 (LC3), endogenous (human (endogenous in HEK293T)) (UniProt Q9GZQ8)
Experiment: co-IP

HIV-1 NL4-3 Gag (p55), expressed from the provirus (natural protein)
reduction of the binding in SQSTM1-depleted cells relative to the control siRNA: 50%
